Results as given in US20240067729A1 (published 2024).
Positions count from the first letter of the chain named.

B1: 752-hIgG1 (chimeric PAL752) (antibody, V domains shown)
VH: EVQLQESGAELARPGASVKLSCKASGHAFTSDSINWVKQRIGQGLEWIGEIYPRSGNPYYNEKFKGKATLTADKSSSTAYMELRSLTSEDSAVYFCATDYYGRYFDVWGTGTTVTVSS
VL: DIQMTQSSFSFSVSLGDRVTIICKASEDIYNRLAWYQQKPGNTPRLLISGATSLETGVPSRFSGSGSGKDYTLSITSLQTEDVATYYCQQYWSTPWTFGGGTKLEIK
B2: 769-hIgG1 (chimeric PAL769) (antibody, V domains shown)
VH: EVQLQESGAELVKPGASVTLSCTASGFNIKDTYMHWVKQRPEQGLEWIGRIDPANDNTKYDPKFQDKATITADTSSDTAYLRLSSLTSEDTAVYYCAREGYGGSYGEGYWGQGTTLTVSS
VL: SIVMTQTPKFLLVSAGDRVTITCKASQSVSNDVIWYQQKPGQSPKLLIYYASIRFTGVPDRFAGSGYGTDFTFTINTVQAEDLAVYFCQQDYNSPWTFGGGTKLEIK
B3: 785-hIgG1 (chimeric PAL785) (antibody, V domains shown)
VH: EVQLQESGPELVKPGTSVKMSCKASGYTFTSYVMHWVKQRPGQGLEWIGYINPYNDGSKYNEKFKGKATLTSDTSSSTAYMELSSLTSEDSAVYYCAKQTLDFWGQGTSVTVST
VL: DIVLTQSPASLAVSLGQRATISCRASESVEFYGTTLMQWYQQKPGQPPKLLIYAASNVESGVPARFSGSGSGTDFSLNIHPVEEGDIGMYFCQQSRKVPYTFGGGTKLEIK
B4: 788-hIgG1 (chimeric PAL788) (antibody, V domains shown)
VH: QVQLQQPGAELVKPGASVKLSCKASGYTFTSNWMNWVKQRPGRGLEWIGRIHPSDSETHYHQKFKSKATLTVDKSSSTAYIQLSSLTSEDSAVYYCAHSSGDYGRDYWGQGTTLTVSS
VL: NIVLTQSPASLAVSLGQRATISCRASESVDSYGNSFMHWYQQKPGQPPKLLIYLASNLQSGVPARFSGSGSRTDFTLTIDPVEADDAATYYCQQNNEDPWTFGGGTKLEIK
B5: 767-hIgG1 (chimeric PAL767) (antibody, V domains shown)
VH: EVQLQESGPSLVKPSQTLSLTCSVTGDSITSGYWNWIRKFPGNKLEYMGYISYTGSTYYNPSLKRRISITRDTSKNQYYLQLNSVTTEDTATYYCASQGGWLQAMDYWGQGTSVTVSS
VL: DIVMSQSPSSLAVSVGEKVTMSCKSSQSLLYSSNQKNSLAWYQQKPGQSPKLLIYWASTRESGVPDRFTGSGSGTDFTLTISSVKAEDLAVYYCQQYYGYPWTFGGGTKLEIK
B6: PAL771.2 (antibody, V domains shown)
VH: EVQLQESGAELVKPGASVKLSCTASGFNIKDTYMHWVKQRPEQGLEWIGRIDPANGNTKYDPKFPGKATITADTSSNTAYLQLSSLTSEDAAVYYCARPFNYRFYDVYYFDYWGQGTTLTVST
VL: QIVLTQSPAIMSASPGEKVTMTCSASSSVSYMYWYQQKPGSSPRLLIYDTSNLASGVPLRFSGSGSGTSYSLTLSRMEAEDAATYYCQQWSTYPLTFGAGTKLELK
B7: h769-tm2 (humanized 769-hIgG1 variant) (antibody, V domains shown)
VH: EVQLVQSGAEVKKPGATVKISCKVSGFNIKDTYMHWVQQAPGKGLEWMGLIDPANDNTIYAEKFQGRVTITADTSTDTAYMELSSLRSEDTAVYYCAREGYGGSYGEGYWGQGTLVTVSS
VL: EIVMTQSPPTLSLSPGERVTLSCRASQSVSNDLSWYQQKPGQAPRLLIYYASIRFTGIPARFSGSGYGTDFTLTISSLQPEDFAVYYCQQDYNSPWTFGQGTKVEIK
B8: h769-IF3 (humanized 769-hIgG1 variant) (antibody, V domains shown)
VH: B7 VH
VL: B7 VL with Y67S
B9: h769-tm3 (humanized 769-hIgG1 variant) (antibody, V domains shown)
VH: B7 VH
VL: B7 VL with Y67S, Y87F

Target: T1, human PD-L1 (hPD-L1) coated on ELISA wells, Example 7 (human, UniProt Q9NZQ7 19-238)
T1 sequence (Q9NZQ7 19-238): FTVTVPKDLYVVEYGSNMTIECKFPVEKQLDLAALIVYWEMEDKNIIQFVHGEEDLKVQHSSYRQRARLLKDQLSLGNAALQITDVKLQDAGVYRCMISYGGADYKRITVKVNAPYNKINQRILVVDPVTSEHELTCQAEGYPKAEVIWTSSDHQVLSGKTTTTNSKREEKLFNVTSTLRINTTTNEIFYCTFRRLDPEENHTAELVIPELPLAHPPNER
Assay: Blocking ELISA

Row | IC50 [nM] | Binder
1 | 4.64 | B1
2 | 1.58 | B2
3 | 1.94 | B3
4 | 2.93 | B4
5 | 2.01 | B5

Target: T1, human PD-L1 (hPD-L1) coated on ELISA …
Assay: huPD1-Fc blocking ELISA

Row | IC50 [nM] | Binder
6 | 0.6 | B6

Target: T1, human PD-L1 (hPD-L1) coated on ELISA …
Assay: blocking ELISA (hPD1-Fc binding)

Row | IC50 [nM] | Binder
7 | 1.57 | B2
8 | 1.44 | B7
9 | 1.47 | B8
10 | 1.29 | B9
